The text below walks through data of publication PMC3750979.

The target of one data set is T1, NHis-Purβ III (Mus musculus, UniProt O35295 209-303).
T1 sequence: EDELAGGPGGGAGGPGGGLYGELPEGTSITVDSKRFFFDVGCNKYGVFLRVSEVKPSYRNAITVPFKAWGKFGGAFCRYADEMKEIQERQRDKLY
Briefly: ssDNA-binding ELISA. (In general: ELISA stands for enzyme-linked immunosorbent assay.)

The target of data set [1] is T2, NHis-Purβ I-II-III (Mus musculus, UniProt O35295 41-303).
T2 sequence: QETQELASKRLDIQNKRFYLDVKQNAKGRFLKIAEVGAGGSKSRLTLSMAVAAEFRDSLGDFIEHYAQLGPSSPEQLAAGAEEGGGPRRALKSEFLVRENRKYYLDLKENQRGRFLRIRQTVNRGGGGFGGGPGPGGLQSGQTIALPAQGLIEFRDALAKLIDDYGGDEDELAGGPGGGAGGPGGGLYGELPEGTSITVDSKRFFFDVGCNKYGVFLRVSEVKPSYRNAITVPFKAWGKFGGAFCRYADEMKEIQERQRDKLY
Briefly: ssDNA-binding ELISA.

The target of data set [2] is T3, NHis-Purβ (full-length) (Mus musculus, UniProt O35295 1-324).
T3 sequence: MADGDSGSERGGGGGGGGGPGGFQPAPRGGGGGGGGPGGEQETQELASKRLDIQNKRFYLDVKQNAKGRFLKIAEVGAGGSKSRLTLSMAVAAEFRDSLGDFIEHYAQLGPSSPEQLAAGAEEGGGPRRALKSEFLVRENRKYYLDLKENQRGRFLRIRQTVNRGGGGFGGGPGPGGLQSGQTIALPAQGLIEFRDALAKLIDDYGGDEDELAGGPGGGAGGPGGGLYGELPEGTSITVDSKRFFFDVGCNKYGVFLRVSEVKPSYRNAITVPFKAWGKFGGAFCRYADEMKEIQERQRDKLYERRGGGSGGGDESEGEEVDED
Briefly: ssDNA-binding ELISA.

Data set [3] deals with T2, NHis-Purβ I-II-III. Briefly: competition.
For data set [4], the target named is T3, NHis-Purβ (full-length). Briefly: competition.

As for GGGAGCAGAACAGAGGAATGCAGTGGAAGAGA (ssDNA) [PE32-bF], the “apparent K (half saturation)” value with NHis-Purβ III is 1.8 ± 0.74 nM; in the data set with NHis-Purβ I-II-III [1], 0.22 ± 0.05 nM; with NHis-Purβ (full-length) [2] it was 0.16 ± 0.05 nM. Further, the IC50 turned out to be 1 ± 0.3 nM with NHis-Purβ I-II-III [3] and 1.2 ± 0.2 nM with NHis-Purβ (full-length) [4].

A word on the IC50: it is the point on the concentration scale where inhibition reaches its midpoint.
